Results: PMC9638894

How the values were obtained:
[1] = molecular target: type IF CRISPR RNA guided surveillance complex (Csy) (UniProt Q02MM2); test: differential scanning fluorimetry; purified Csy (0.323 uM) or AcrIF2-bound Csy (0.475 uM) in 100 mM citrate phosphate buffer pH 7.5 with SYPRO orange; 25°C to 95°C at 1°C/min; maximum intensity of each curve compared
[2] = molecular target: type IF CRISPR RNA guided surveillance complex (Csy) (UniProt Q02MM2); test: ITC; AcrIF9 or AcrIF2 binding to the Csy complex; conditions not told in the text shown (Supplemental Figure S8)

Sequence of AcrIF2 (natural protein) (Q6TM72 whole entry): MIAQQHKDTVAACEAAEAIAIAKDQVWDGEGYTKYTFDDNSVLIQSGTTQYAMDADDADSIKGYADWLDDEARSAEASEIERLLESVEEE

- increase in temperature at the maximum DSF intensity compared to unbound Csy [1]: 3 °C
- dH [2]: < 0
Substance: AcrIF2 (natural protein)
